Test results taken from patent US20120003296A1, “NEW METHODS OF TREATING DRY EYE SYNDROME” (priority 2010, published 2012).

Tests used:
[1] = system: dry mouth and dry eyes conditions; test: ADT (Sialor) orally and/or as eye drops in dry mouth and dry eyes; format: in vivo; settings: 25 mg orally and/or ophthalmic drops; chemotherapy patients, menopausal women, chronic smokers
Method: Another drug available is an organo sulfur compound, anethole dithiolethione (ADT, 5-[p-methoxyphenyl]-3H-1,2-dithiol-3-thione, trade name Sialor™) with hardly any side effects. It stimulates the secretion of saliva in patients with autoimmune exocrinopathy (e.g. Sjogren's syndrome). Sialor alleviates the symptoms of xerostomia and xeroophthalmia. We have used Sialor, 25 mg orally and/or ophthalmic drops with successes in these conditions especially those on chemotherapy, menopausal women, and chronic smokers with dry mouth and dry eyes conditions. ADT increases the glutathione synthesis by activating gamma-glutamyl-cysteine synthetase. ADT reduced both polymorphonuclear neutrophils adhesion to ROS (reactive oxygen species—can be effective in post perfusion adhesion of white blood cells to ROS with resultant damage) and stimulated tyrosine phosphorylation.
Another drug available to treat KCS is a organo sulfur compound, anethole dithiolethione (ADT—trade name Sialor) with hardly any side effects. It stimulates the secretion of saliva, in patients with autoimmune exocrinopathy (Sjogren's syndrome). Sialor alleviates the symptoms of xerostomia and xeroophthalmia. […]

[2] = system: Wurzburg cells; settings: cited from earlier work
[3] = in vivo; cited from earlier work
[4] = local application incl. conjunctival sac, scalp, gums, mucosa, wounds
Source text: The present invention formulation contains only 0.05 IU per drop which can be increased in severe disease states.

[5] = system: dry eye syndrome; test: Therapeutic activity against dry eye syndrome; format: in vivo; settings: incl. KCS, Sjogren's syndrome, MGD
Source text: Also, the terminology used herein is for the purpose of description and not of limitation.

[6] = Local insulin on ulcers and tooth extraction wounds; format: in vivo; settings: insulin soaked cotton swabs, 1-3 units in normal saline
Source text: (§1) The present inventors have used insulin for more than a decade to enhance the effectiveness of locally injected therapeutic agents especially cancers with chemotherapeutic agents with remarkable results. […] It stimulated the fibroblast, endothelial cell, angiogenesis and skin cell growth resulting accelerated wound healing.

[7] = system: indolent ulcers; test: as above; format: in vivo; settings: insulin spray, anywhere in the body incl. oral and nasal cavity
Source text: as §1

[8] = system: advanced and localized cancers; test: Insulin followed by chemotherapeutic agents injected into cancer masses; format: in vivo; settings: insulin followed by anticancer chemotherapeutic agents, direct injection
Source text: Our study of injecting Insulin followed by anticancer chemotherapeutic agents directly into cancer masses on hundreds of advanced and localized cancers supports these finding also. […] We treated multiple brain cancer patients by directly injecting insulin with mannitol followed by with specific anti tumor Chemo-therapeutic agents with dextrose and heparin directly infused into the internal carotid artery with positive results. Patients lived longer with good quality of life with less side effects to the chemotherapy agents.

[9] = system: musculoskeletal pain; test: Prolotherapy injectate with insulin; format: in vivo; settings: with insulin versus prolotherapy agent alone
Source text: The inventors have used glucose along with insulin and lidocaine in our prolotherapy injectate for various musculoskeletal pain, including arthritis, back pain, neck pain, fibromyalgia, sports injuries, unresolved whiplash injuries, carpal tunnel syndrome, chronic tendonitis, partially torn tendons, ligaments and cartilage, degenerated or herniated discs, TMJ pain and sciatica. It is important to note the principle of prolotherapy is to induce fibroblasts to multiply and lay more ligaments (collagen); make the ligaments and tendons stronger inducing sterile inflammation at the site. Insulin can enhance the multiplication of fibroblasts by these prolotherapy and other sterile inflammatory therapeutic agents to make ligaments stronger. […] Insulin increased the fibroblast mitosis and thus increased production of collage to strengthen the ligaments of the painful joint giving long lasting fast pain relief with stronger functional joints. When insulin is therapeutically effective ever in taking away the pain by various prolotherapy therapeutic agents, one can see how effective it is in treating the dry eye syndrome and associated diseases of the eye.

[10] = system: pain; test: Trigger point and joint injection of local anesthetic with insulin; format: in vivo; settings: local anesthetic with insulin versus injectate without insulin
Source text: Trigger points or trigger sites are described as hyperirritable spots in skeletal muscle that are associated with palpable nodules in taut bands of muscle fibers whose compression may elicit local tenderness, referred pain, or local twitch response. There are many therapies to take away the tenderness and sore spots.

[11] = system: MCF-7 human breast cancer cells; settings: in vitro, MCF-7 cells, methotrexate in presence of insulin; cited from earlier work
[12] = system: scleroderma and systemic lupus erythematosus; settings: with insulin
[13] = relative to testosterone; cited from earlier work
[14] = system: dry eye; settings: ophthalmic drops, compared to artificial tears or testosterone; cited from earlier work
[15] = system: dry eye syndrome; test: MSM mixed with insulin as eye drops; format: in vivo; settings: aqueous MSM mixed with insulin, chemotherapy, allergic eyes, contact lens wearers
Source text: Methylsulfonylmethane (MSM), is an organosulfur compound with the formula (CH3)2SO2, a metabolite of DMSO. It is also known by several other names: DMSO2, MSM, Methylsulfonylmethane, methyl sulfone, and dimethyl sulfone. It is marketed as dietary supplement and also used for osteoarthritis, allergic rhinitis, interstitial cystitis, and throat spray for snoring. Stanley W. Jacob, M.D., of the Oregon Health and Science University, reports using MSM to treat over 18,000 patients with a assortment of ailments (MSM the Definitive Guide: The Nutritional Breakthrough for Arthritis, Allergies and More. Freedom Press. 2003. ISBN 9781893910225. http://www.amazon.com/MSM-Definitive-Guide-Nutritional-Breakthrough/dp/1893910229). It is soluble in water, and a good solvent like DMSO. We have used aqueous solutions of MSM, filtered and sterilized and mixed with insulin and used as eye drops to treat dry eye syndrome during chemotherapy, allergic conditions of the eyes and contact lens wearers with good results.

[16] = system: dry eye; settings: 2% suspension, versus baseline; cited from earlier work

Which “treatment outcome in dry mouth and dry eyes conditions” value [1] does the source give for `COc1ccc(-c2cc(=S)ss2)cc1` [ADT, 5-[p-methoxyphenyl]-3H-1,2-dithiol-3-thione] here?
Its value is “successes”.

And the “H2O2 induced lipid peroxidation” value ([2]; ADT pretreatment of Wurzburg cells)?
Its value is “remarkably inhibited”.

What about the glutathione levels ([2]; compared with untreated Wurzburg cells) of the same compound?
The glutathione levels was “rises glutathione levels significantly”.

For Regular (soluble): short-acting insulin, which “Effective duration of action” value [3] is on record?
The value was 3 to 6 h.

What about the “Maximum duration” value [3] of the same compound?
Its value is 6 to 8 h.

And the “Peak action in hours” value [3]?
The value was 2 to 3 h.

Which “Onset of Action in hours” value [3] does the source give for Insulin glulisine here?
Its value is “¼-½”.

Which “Effective duration of action” value [3] does the source give for Insulin glargine here?
The value was 18 to 20 h.

What about the “Maximum duration” value [3] of the same compound?
Its value is 20 to 24 h.

And the “Onset of Action” value [3]?
The value was 3 to 4 h.

What about the “Peak action in hours” value [3] of the same compound?
Its value is 8 to 16 h.

For Insulin aspart, which “Onset of Action in hours” value [3] is on record?
Its value is “¼-½”.

Which results are given for insulin?
blood sugar levels (hypoglycemic effects) [4]: did not change the blood sugar levels; therapeutic activity against dry eye syndrome [5]: high therapeutic activity; healing after teeth extraction [6]: rapid healing with reduced pain; healing of indolent ulcers [7]: augmented the healing; palpable tumors including enlarged lymph nodes [8]: literally melted away; effectiveness of prolotherapy [9]: more effective; relief of pain [10]: rapid and effective relief of pain; increase of the cytotoxic effect of methotrexate [11]: up to 10,000 fold

Which “therapeutic activity against dry eye syndrome” value [5] does the source give for “IGF-1: Insulin-like Growth factor (IGF-1), which has insulin like effects” here?
The value was “high therapeutic activity”.

Which “Onset of Action in hours” value [3] does the source give for Insulin lispro here?
The value was “¼-½”.

With `O=P1(N(CCCl)CCCl)NCCCO1` (stereo not drawn) [cyclophosphamide, Cyclophosphamide] as the compound, how does the “treatment outcome in scleroderma and systemic lupus erythematosus” value [12] read?
Its value is “very successfully”.

Which “androgenic activity of testosterone” value [13] does the source give for `C[C@]12CC[C@H](O)CC1=CC[C@@H]1[C@@H]2CC[C@]2(C)C(=O)CC[C@@H]12` [DHEA, dehydroepiandrosterone] here?
The value was 5%.

And the subjective patient response [14]?
Its subjective patient response is “felt better”.

What does the source list for “NPH (isophane): intermediate-acting insulin”?
Effective duration of action [3]: 10 to 16 h; Maximum duration [3]: 14 to 18 h; Onset of Action [3]: 2 to 4 h; Peak action in hours [3]: 6 to 10 h

For `CS(C)(=O)=O` [MSM, Methylsulfonylmethane], which “treatment outcome in dry eye syndrome” value [15] is on record?
Its value is “good results”.

With `O=C(NC(Cc1cc(=O)[nH]c2ccccc12)C(=O)O)c1ccc(Cl)cc1` (stereo not drawn) [Rebamipide] as the compound, how does the fluorescein corneal staining [16] read?
The fluorescein corneal staining was “decreased from baseline”.

What about the “subjective parameters such as gritty/sandy sensation and burning/pain” value [16] of the same compound?
The value was “decreased from baseline”.

Which results are given for Insulin detemir?
Effective duration of action [3]: 14 h; Maximum duration [3]: ~20 h; Onset of Action [3]: 3 to 4 h; Peak action in hours [3]: 6 to 8 h
